The text below walks through data of patent US8143216B2, “Modified human growth hormone” (Ambrx, Inc., priority 2004, dated 2012).

As a reminder, the MRT is the average time that molecules of a dose stay in the body. A word on the kon: it is a measure of how fast the partners come together.

For one data set, the system named is hypophysectomized rats. The experiment in a line: Pharmacodynamic studies in hypophysectomized rats (Example 30). The settings on record: s.c., compared with the pAF92 30 kDa PEG compound, p<0.0005. The format is in vivo, rat. On the procedure: Hypophysectomized male Sprague-Dawley rats were obtained from Charles River Laboratories. Pituitaries were surgically removed at 3-4 weeks of age. Animals were allowed to acclimate for a period of three weeks, during which time bodyweight was monitored. Animals with a bodyweight gain of 0-8 g over a period of seven days before the start of the study were included and randomized to treatment groups. Rats were administered either a bolus dose or daily dose subcutaneously. Throughout the study rats were daily and sequentially weighed, anesthetized, bled, and dosed (when applicable). Blood was collected from the orbital sinus using a heparinized capillary tube and placed into an EDTA coated microfuge tube. Plasma was isolated by centrifugation and stored at −80° C. until analysis.
The peptide IGF-1 is a member of the family of somatomedins or insulin-like growth factors. IGF-1 mediates many of the growth-promoting effects of growth hormone. IGF-1 concentrations were measured using a competitive binding enzyme immunoassay kit against the provided rat/mouse IGF-1 standards (Diagnosic Systems Laboratories). Significant difference was determined by t-test using two-tailed distribution, unpaired, equal variance. […] Rats (n=5-7 per group) were given either a single dose or daily dose subcutaneously. Animals were sequentially weighed, anesthetized, bled, and dosed (when applicable) daily. […]

Data set [1] in a line: Pharmacokinetic studies, single s.c. dose in normal male Sprague-Dawley rats. The format is in vivo, rat. The settings on record: single-dose 1 mg/kg bolus s.c., normal male Sprague-Dawley rats. As to the method: Pharmacokinetic properties of PEG-modified growth hormone compounds were compared to each other and to nonPEGylated growth hormone in male Sprague-Dawley rats (261-425 g) obtained from Charles River Laboratories. Catheters were surgically installed into the carotid artery for blood collection. Following successful catheter installation, animals were assigned to treatment groups (three to six per group) prior to dosing. Animals were dosed subcutaneously with 1 mg/kg of compound in a dose volume of 0.41-0.55 ml/kg. Blood samples were collected at various time points via the indwelling catheter and into EDTA-coated microfuge tubes. Plasma was collected after centrifugation, and stored at −80° C. until analysis. Compound concentrations were measured using antibody sandwich growth hormone ELISA kits from either BioSource International (Camarillo, Calif.) or Diagnostic Systems Laboratories (Webster, Tex.). Concentrations were calculated using standards corresponding to the analog that was dosed. Pharmacokinetic parameters were estimated using the modeling program WinNonlin (Pharsight, version 4.1). Noncompartmental analysis with linear-up/log-down trapezoidal integration was used, and concentration data was uniformly weighted.
Rats (n=3-4 per group) were given a single bolus dose of 1 mg/kg hGH wild-type protein (WHO hGH), His-tagged hGH polypeptide (his-hGH), or His-tagged hGH polypeptide comprising non-natural amino acid p-acetyl-phenylalanine at position 92 covalently linked to 30 kDa PEG (30 KPEG-pAF92(his)hGH). Plasma samples were taken over the indicated time intervals and assayed for injected compound as described.
Rats (n=3-6 per group) were given a single bolus dose of 1 mg/kg protein. hGH polypeptides comprising non-natural amino acid p-acetyl-phenylalanine covalently linked to 30 kDa PEG at each of six different positions were compared to WHO hGH and (his)-hGH. Plasma samples were taken over the indicated time intervals and assayed for injected compound as described. Concentration vs time curves were evaluated by noncompartmental analysis (Pharsight, version 4.1). Values shown are averages (+/− standard deviation). Cmax: maximum concentration; terminal t1/2: terminal half-life; AUC0->inf: area under the concentration-time curve extrapolated to infinity; MRT: mean residence time; Cl/f: apparent total, plasma clearance; Vz/f: apparent volume of distribution during terminal phase.

The target of the next data set is T1, rat GHR ECD (L43R) (Rattus norvegicus, UniProt P16310, L61R).
T1 construct: (GHR ECD, amino acids S29-T238) was cloned into pET20b vector; made in house
T1 sequence (P16310 47-256 L61R): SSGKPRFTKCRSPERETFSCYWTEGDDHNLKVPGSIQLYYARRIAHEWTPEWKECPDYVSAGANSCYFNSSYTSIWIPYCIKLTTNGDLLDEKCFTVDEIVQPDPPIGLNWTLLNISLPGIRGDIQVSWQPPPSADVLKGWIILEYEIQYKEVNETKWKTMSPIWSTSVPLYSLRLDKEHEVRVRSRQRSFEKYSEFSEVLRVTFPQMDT
Description: Biacore analysis of binding of GH to GHR. Particulars: rat GHR ECD (L43R) immobilized on a CM5 chip, bivalent analyte model. On the procedure:
Cloning and purification of rat GH receptor The extracellular domain of rat GH receptor (GHR ECD, amino acids S29-T238) was cloned into pET20b vector (Novagen) between Nde I and Hind III sites in frame with C-terminal 6H is tag. A mutation of L43 to R was introduced to further approximate the human GH receptor binding site (Souza et al., Proc Natl Acad Sci USA. (1995) 92(4): 959-63). Recombinant protein was produced in BL21 (DE3) E. coli cells (Novagen) by induction with 0.4 mM IPTG at 30° C. for 4-5 hours. After lysing the cells, the pellet was washed four times by resuspending in a dounce with 30 mL of 50 mM Tris, pH 7.6, 100 mM NaCl, 1 mM EDTA, 1% Triton X-100, and twice with the same buffer without Triton X-100. […] Refolding was accomplished by means of passing an aliquot of the inclusion body solution through a S100 (Sigma) gel filtration column, equilibrated with 50 mM Tris, pH 7.8, 1 M L-arginine, 3.7 mM cystamine, 6.5 mM cysteamine. Fractions containing soluble protein were combined and dialyzed against 50 mM Tris, pH 7.6, 200 mM NaCl, 10% glycerol. The sample was briefly centrifuged to remove any precipitate and incubated with an aliquot of Talon resin (Clontech), according to manufacturer's instructions. After washing the resin with 20 volumes of dialysis buffer supplemented with 5 mM imidazole, protein was eluted with 120 mM imidazole in dialysis buffer. Finally, the sample was dialyzed overnight against 50 mM Tris, pH 7.6, 30 mM NaCl, 1 mM EDTA, 10% glycerol, centrifuged briefly to remove any precipitate, adjusted to 20% glycerol final concentration, aliquoted and stored at −80 C. Concentration of the protein was measured by OD(280) using calculated extinction coefficient of ε=65,700 M^−1*cm^−1.
Approximately 600-800 RUs of soluble GHR ECD was immobilized on a Biacore™ CM5 chip, using a standard amine-coupling procedure, as recommended by the manufacturer. […] See, e.g., Cunningham et al. J Mol. Biol. (1993) 234(3): 554-63 and Wells J A. Proc Natl Acad Sci USA (1996) 93(1): 1-6).
Various concentrations of wild type or mutant GH (0.1-300 nM) in HBS-EP buffer (Biacore™, Pharmacia) were injected over the GHR surface at a flow rate of 40 μl/min for 4-5 minutes, and dissociation was monitored for 15 minutes post-injection. The surface was regenerated by a 15 second pulse of 4.5M MgCl2. […] Reference cell with no receptor immobilized was used to subtract any buffer bulk effects and non-specific binding.
Kinetic binding data obtained from GH titration experiments was processed with BiaEvaluation 4.1 software (BIACORE™). […] Equilibrium dissociation constants (Kd) were calculated as ratios of individual rate constants (koff/kon).
(In general: Surface plasmon resonance follows binding to a sensor surface in real time, without labels.)

With “Y35pAF-30KD PEG: hGH polypeptide comprising p-acetyl-phenylalanine at position 35 covalently linked to 30 kDa PEG”, the “bodyweight gain at day 9” value in the data set on hypophysectomized rats is listed as “greater weight gain was observed”. Further, in data set [1], the “AUC0−>inf” value is reported as 39,918 ng × hr/ml, the Cl/f is 35 mL/h/kg, the Cmax was 1,885 ng/ml and the mean residence time MRT is recorded as 19.16 h. In addition, the “Terminal t1/2” value in data set [1] came out at 4.85 h. In the data set with rat GHR ECD (L43R), this substance registered a kon of 90000 M⁻¹ s⁻¹.
